Positions of bridges follow the written chain, without caps; N, C: chain ends. No end group written: not given here.
B1: B6Hα-3-E6-IR (peptide)
peptide: CGAKMTGTPNDPFYHKLSELLQRG
B2: B6Hα-2-D8-IR (peptide)
peptide: SSETAKMVTGTRDDPFYHKLSELVQGS
B3: B6Hα-1-23-IR (peptide)
peptide: GCITAENGAGDPFYHKLSELGGCS
modifications: disulfide 2-23 (inferred); not fully specified (N-terminus, C-terminus)
B4: B6Hα-3-F1-IR (peptide)
peptide: CSMAAVAEAGDDDDPFYHKLSELCQGS
B5: R20β-E8-IR (peptide)
peptide: VRGFQGGTVWPGYEWLRNAA
modifications: not fully specified (N-terminus, C-terminus)
B6: 20E2A-4-G11-IGFR (peptide)
peptide: MNVFVSFYDAIDQLVCQRIGC
modifications: not fully specified (N-terminus, C-terminus, bridges); cysteine pairing not given here
B7: 20E2Bβ-3-C7-IR (peptide)
peptide: QSGSGDFYDWLSRLIRGNGDG
modifications: not fully specified (N-terminus, C-terminus)
B8: 26L-3-G5-IR (peptide)
peptide: AETSAQVGWQRLWSVWPGDHWSTLDPFYHKLSELLRESGA
modifications: not fully specified (residue 27, N-terminus, C-terminus); printed as AETSAQVGWQRLWSVWPGDHWSTLDP9YHKLSELLRESGA
B9: 20E2A-3-A4-IGFR (peptide)
peptide: AGSVTSFYDAMEQLVATGTSA
B10: B6Hα-3-ES-IR (peptide)
peptide: RCGDEEGWQENRRDDPFYHKLSELFGGC
modifications: disulfide 2-28 (inferred); not fully specified (N-terminus, C-terminus)
B11: 20E2A-3-A3-IGFR (peptide)
peptide: GHYFGSFYDAIDQLVAGMLPG
B12: H2CA-4-F11-IGFR (peptide)
peptide: SAAQLFFQESFYDWFLRQVAESSQPN
B13: H2CA-4-F5-IGFR (peptide)
peptide: VGYQGQGDENFYDWFIRQVSGRLGVQ
B14: H2CA-4-H8-IGFR (peptide)
peptide: SACQFDCHENFYDWFARQVSGGAAYG
modifications: not fully specified (bridges); cysteine pairing not given here
B15: H2CA-4-H6-IGFR (peptide)
peptide: VGRASGFPENFYDWFGRQLSLQSGEQ
B16: RB622 (peptide)
peptide: MADYKDDDDKWLDQEWAWVQCEVYGRGCPSTPKPPTPPPLSADGSLDESFYDWFERQLGKKAAAGAPVPYPDPLEPRPG
notes: Recombinant F6-F1 dimer peptide with tags at both ends
B17: RB521 (peptide)
peptide: MADYKDDDDKGSLDESFYDWFERQLGKKGGSGGSGSLDESFYDWFERQLGKKAAAGAPVPYPDPLEPRPG
notes: Recombinant F1-F1 dimer peptide with tags at both ends
B18: RB538 (peptide)
peptide: MADYKDDDDKGSLDESFYDWFERQLGKKGGSGGSGGSGGSWLDQEWAWVQCEVYGRGCPSAAAGAPVPYPDPLEPRPG
notes: Recombinant F1-F6 (Site 1-Site 2) dimer peptide with tags at both ends
B19: RB509 (peptide)
peptide: DYKDDDDKVRVDWLQRNANFYAWFVAELGGGSGGSGGSGGSGRVDWLQRNANFYDWFVAELGAAAGAPVPYPDPLEPRAA
B20: RB517 (peptide)
peptide: DYKDDDDKHLCVLEELFWGASLFGYCSGGGSGGSHLCVLEELFWGASLFGYCSGAAAGAPVPYPDPLEPRAA
B21: RB625 (peptide)
peptide: MADYKDDDDKWLDQEWAWVQCEVYGRGCPSQPPPPDITTHRADPQGSLDESFYDWFERQLGKKAAAGAPVPYPDPLEPRPG
notes: as for B16
B22: RB569 (peptide)
peptide: MGSLDESFYDWFERQLGEEEGGDHHHHHHPG
notes: F1 monomer with a His tag
B23: RB508 (peptide)
peptide: DYKDDDDKVRVDWLQRNANFYDWFVAELGGGSGGSGRVDWLQRNANFYDWFVAELGAAAGAPVPYPDPLEPRSA
B24: RB463 (other, not shown: large carriers)
chain: NNNNLGIEGRISEFIEGRAQPAMAFHENFYDWFVRQVSGGSFHENFYDWFVRQVSAAAGAPVPYPDPLEPRAA
notes: MBP fusion, uncleaved
B25: RB535 (peptide)
peptide: MADYKDDDDKGSLDESFYDWFERQLGKKGGSGGSGGSGGSGSLDESFYDWFERQLGKKAAAGAPVPYPDPLEPRPG
notes: as for B17
B26: RB626 (peptide)
peptide: MADYKDEIEAEWGRVRCLVYGRCVGGGGSGGSGGSGGSGSLDESFYDWFERQLGKKAAAGAPVPYPDPLEPRPG
notes: as for B16
B27: RB436 (other, not shown: large carriers)
chain: NNNNLGIEGRISEFIEGRAQPAMAFHENFYDWFVRQVSGGSGGSGGSFHENFYDWFVRQVSAAAGAPVPYPDPLEPRAA
notes: MBP fusion, uncleaved
B28: RB539 (peptide)
peptide: MADYKDDDDKWLDQEWAWVQCEVYGRGCPSGGSGGSGSLDESFYDWFERQLGKKAAAGAPVPYPDPLEPRPG
notes: Recombinant F6-F1 (Site 2-Site 1) dimer peptide with tags at both ends
B29: RB435 (other, not shown: large carriers)
chain: NNNNLGIEGRISEFIEGRAQPAMAFHENFYDWFVRQVSGGSFHENFYDWFVRQVSGGSFHENFYDWFVRQVSAAAGAPVPYPDPLEPRAA
notes: MBP fusion, uncleaved
B30: RB570 (peptide)
peptide: MQNDDGSLDESFYDWFERQLGEEEGGDHHHHHHPG
notes: F1 monomer with a His tag
B31: RB437 (other, not shown: large carriers)
chain: NNNNLGIEGRISEFIEGRAQPAMAFHENFYDWFVRQVSAAAGAPVPYPDPLEPRAA
notes: MBP fusion, uncleaved
B32: RB540 (peptide)
peptide: MADYKDDDDKWLDQEWAWVQCEVYGRGCPSAAAGAPVPYPDPLEPRPG
notes: Recombinant F6 monomer peptide with tags at both ends
B33: RB596 (peptide)
peptide: MQNDDGSLDESFYDWFERQLGHHHHHHPG
notes: F1 monomer with a His tag
B34: RB537 (peptide)
peptide: MADYKDDDDKGSLDESFYDWFERQLGKKGGSGGSWLDQEWAWVQCEVYGRGCPSAAAGAPVPYPDPLEPRPG
notes: as for B18

The binders below were run against T1, Insulin receptor (IR) prepared according to Bass et al., 1996 (human, UniProt P06213 28-956) (assay: not given).
T1 construct: extracellular domain; also called soluble IR (Bass construct); sIR-Fc; not shown: immunoglobulin heavy chain constant domains of the Bass chimera

Row | Binder | ratio over background, IR [ratio over background]
1 | B1 | 1.2
2 | B2 | 1
3 | B3 | 1.1
4 | B4 | 1.3
5 | B5 | 3.6
6 | B6 | 1.3
7 | B7 | 1.5
8 | B8 | 1.4
9 | B9 | 1.8
10 | B10 | 1
11 | B11 | 1.5

These binders were tested against T2, Insulin receptor prepared according to Bass et al., 1996: soluble human insulin receptor-immunoglobulin heavy … (human, UniProt P06213 28-956) (assay: phage ELISA vs milk).
T2 construct: extracellular domain; Eu3+-labelled in TR-FRET; also called IR; sIR-Fc; not shown: immunoglobulin heavy chain constant domains that replace the transmembrane and i

Row | Binder | Ratio over Background [fold]
12 | B12 | 1
13 | B13 | 0.8
14 | B14 | 1
15 | B15 | 0.7

What follows are binders tested against T3, Soluble IGF-1R (R&D Systems, Cat. # 391-GR/CF); recombinant human IGF-1R (human, UniProt P08069 31-935) (assay: phage ELISA vs milk).
T3 construct: extracellular domain; Eu3+-labelled in the TR-FRET assays; also called sIGF-1R; rhIGF-1R

Row | Binder | Ratio over Background [fold]
16 | B12 | 6.8
17 | B13 | 9.7
18 | B14 | 9.2
19 | B15 | 10.5

These binders were tested against T1, Insulin receptor (IR) prepared … (assay: phage ELISA; ratio over background for IR divided by that for IGF-1R).

Row | Binder | IR/IGF-1R ratio comparison [ratio]
20 | B1 | 0.5
21 | B2 | 0.3
22 | B3 | 0.3
23 | B4 | 0.5
24 | B5 | 0.1
25 | B6 | 0.4
26 | B7 | 0.5
27 | B8 | 0.7
28 | B9 | 0.7
29 | B10 | 0.3
30 | B11 | 0.5

These binders were tested against T2, Insulin receptor prepared according to … (assay: phage ELISA, vs IGF-1R).

Row | Binder | IR/IGF-1R Comparison [ratio]
31 | B12 | 0.1
32 | B13 | 0.1
33 | B14 | 0.1
34 | B15 | 0.1

Each binder was assayed against T3, Soluble IGF-1R (R&D Systems, Cat. # …) (assay: phage ELISA, vs IR).

Row | Binder | IGF-1R/IR Comparison [ratio]
35 | B12 | 6.7
36 | B13 | 12.3
37 | B14 | 9.4
38 | B15 | 14.6

These binders were tested against T4, Soluble IGF-1R (UniProt P08069 31-935, limits assumed) (assay: not given).
T4 construct: extracellular domain; Bought reagent; also called sIGF-1R; insulin-like growth factor receptor

Row | Binder | ratio over background, IGF-1R [ratio over background]
39 | B1 | 2.3
40 | B2 | 3
41 | B3 | 3.2
42 | B4 | 2.4
43 | B5 | 34.9
44 | B6 | 3.3
45 | B7 | 3.1
46 | B9 | 2.5
47 | B10 | 2.9
48 | B11 | 3

What follows are binders tested against human insulin receptor (HIR) (human, UniProt P06213 28-1382, limits assumed) (assay: HIR Kd, Table 14; competition with 125I-insulin on solubilised HIR (method of Example 3, not restated for this table)).

Row | Binder | Kd [nM]
49 | B16 | 1
50 | B17 | 44
51 | B18 | 0.017
52 | B19 | 55
53 | B20 | 6000
54 | B21 | 0.38
55 | B22 | 210
56 | B23 | 150
57 | B24 | 960
58 | B25 | ~100
59 | B26 | 0.3
60 | B27 | 410
61 | B28 | 0.7
62 | B29 | 2000
63 | B30 | 25
64 | B31 | 8300
65 | B32 | ~100
66 | B33 | 94
67 | B34 | 0.059

Each binder was assayed against T4, Soluble IGF-1R (assay: phage ELISA; ratio over background for IGF-1R divided by that for IR).

Row | Binder | IGF-1R/IR ratio comparison [ratio]
68 | B1 | 1.9
69 | B2 | 3
70 | B3 | 2.9
71 | B4 | 1.8
72 | B5 | 9.7
73 | B6 | 2.6
74 | B7 | 2
75 | B9 | 1.4
76 | B10 | 2.9
77 | B11 | 1.9
